Drawing on patent US11814447B2, “Peptide ligands for binding to EphA2” (BICYCLERD LIMITED, priority 2018, dated 2023), this text covers Ki for 33 molecules.

Starred links: 1 amine or outer side, 2 acyl side, 3 side chain; linkers in the order of their positions; H or OH if unused. Positions of bridges follow the written chain, without caps; N, C: chain ends. Non-standard residues stand in square brackets, D forms with d. Primed or numbered codes have the meaning given here. No end group written: not given here. TBMB′ = 1,3,5-tris(bromomethyl)benzene, 1,3,5-tris(methylene)benzene core, three thioethers to Cys; 4BenzylPro = 4-benzyl-pyrrolidine-2-carboxylic acid; Dip = N[C@H](C(=O)O)C(c1ccccc1)c1ccccc1; 1Nal = N[C@@H](Cc1cccc2ccccc12)C(=O)O; TBMB = c1c(C[*:1])cc(C[*:3])cc1C[*:2]; Ala(cPr) = N[C@@H](CC1CC1)C(=O)O; hArg = N=C(N)NCCCC[C@H](N)C(=O)O; Gly(cPr) = N[C@H](C(=O)O)C1CC1; Cba = N[C@@H](CC1CCC1)C(=O)O; Tle = CC(C)(C)[C@H](N)C(=O)O; Ac5c = NC1(C(=O)O)CCCC1; Ac4c = NC1(C(=O)O)CCC1; Ac3c = NC1(C(=O)O)CC1; Aib = CC(C)(N)C(=O)O; Sar = CNCC(=O)O

T1 sequence (P29317 24-537): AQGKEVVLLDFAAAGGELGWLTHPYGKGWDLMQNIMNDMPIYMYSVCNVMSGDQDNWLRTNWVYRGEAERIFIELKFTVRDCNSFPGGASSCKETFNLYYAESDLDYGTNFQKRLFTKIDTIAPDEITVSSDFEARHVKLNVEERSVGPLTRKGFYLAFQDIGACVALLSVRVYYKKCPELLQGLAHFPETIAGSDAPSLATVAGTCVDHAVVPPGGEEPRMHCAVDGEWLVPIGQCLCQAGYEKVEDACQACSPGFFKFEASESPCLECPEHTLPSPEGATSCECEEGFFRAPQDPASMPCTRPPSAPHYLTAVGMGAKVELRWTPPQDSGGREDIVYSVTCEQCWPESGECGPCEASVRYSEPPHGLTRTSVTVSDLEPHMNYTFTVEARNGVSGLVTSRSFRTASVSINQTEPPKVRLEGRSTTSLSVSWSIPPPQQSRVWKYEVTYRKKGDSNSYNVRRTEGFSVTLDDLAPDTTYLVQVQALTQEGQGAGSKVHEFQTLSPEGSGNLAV

This test concerns the target T1, Human EphA2 (Ecto) (Human, UniProt P29317 24-537).
T1 construct: extracellular domain
Kind of test: FP competition, tracer Compound 18. On the procedure: Peptides without a fluorescent tag were tested in competition with a peptide with a fluorescent tag and a known Kd (Table 2). Peptides were diluted to an appropriate concentration in assay buffer as described in the direct binding assay with a maximum of 5% DMSO, then serially diluted 1 in 2. […] Measurements were conducted as for the direct binding assay, however the gain was determined prior to the first measurement. Data analysis was in Systat Sigmaplot version 12.0 where the mP values were fit to a user defined cubic equation to generate a Ki value: […]
Take Ac-[Sar][Sar]A[dD]VTCPWGPFWCPVNR[Aib][dD]C (linker 7-14-21 via TBMB′) [Bicycle Compound 177]: the inhibition constant Ki came to 4.43 nM.

Ac-[Sar][Sar]A[dD][Gly(cPr)]TCPWGPFWCPVNRPGC (linker 7-14-21 via TBMB′) [Bicycle Compound 162] gave a Ki of 2.55 nM.

Take Ac-[Sar][Sar]ADVTCPWGPFWCPVNRPGC (linker 7-14-21 via TBMB′) [Bicycle Compound 157]: the Ki came to 0.91 nM. Against the preceding molecule, the Ki is about 2.8-fold lower.

Molecule Ac-[Sar][Sar]ADVHCPWGPFWCPVNRPGC (linker 7-14-21 via TBMB) [Bicycle Compound 148] gave a Ki of 1.2 nM.

On to Ac-[Sar][Sar]A[dD]VTCPWGPFWCPLNRPGC (linker 7-14-21 via TBMB′) [Bicycle Compound 174], for which the inhibition constant Ki came to 9.1 nM.

Regarding Ac-[Sar][Sar]A[dD]VTCPWGPNWCPVNRPGC (linker 7-14-21 via TBMB′) [Bicycle Compound 172], the affinity corresponds to a Ki of 3.96 nM.

In the case of Ac-[Sar][Sar][dH]DVPCPWGPFWCPVNRPGC (linker 7-14-21 via TBMB) [Bicycle Compound 224], the inhibitory constant (Ki) was determined as 1.09 nM.

With Ac-[Sar][Sar]A[dD][dD]TCPWGPFWCPVNRPGC (linker 7-14-21 via TBMB′) [Bicycle Compound 159], the Ki came out at 2.85 nM. This Ki is about 2.6-fold higher than that of the molecule before.

The molecule Ac-[Sar][Sar]A[dD][Ala(cPr)]TCPWGPFWCPVNRPGC (linker 7-14-21 via TBMB′) [Bicycle Compound 161] yielded a Ki of 4.44 nM.

Consider [dD]VTCP[1Nal]G[Aib]F[1Nal]CP[Tle]NR[Aib]GC (linker 4-11-18 via TBMB′) [Bicycle Compound 186], for which the Ki came out at 1.34 nM.

As for Ac-[Sar][Sar]A[dD]VTCPWG[Aib]FWCP[Tle]NR[Aib]GC (linker 7-14-21 via TBMB′) [Bicycle Compound 180], the inhibition constant Ki was 3.83 nM.

Regarding Ac-[Sar][Sar]H[dD]VPCPWG[Aib]FWCP[Tle]NR[Aib]GC (linker 7-14-21 via TBMB) [Bicycle Compound 270], the inhibition constant (Ki) stood at 1.52 nM. This Ki is about 2.5-fold lower than that of the molecule before.

Ac-[Sar][Sar]A[dD]VTCP[1Nal]G[Aib]FWCPVNR[Aib]GC (linker 7-14-21 via TBMB′) [Bicycle Compound 178] yielded a Ki of 2.4 nM. Against the preceding molecule, the Ki is about 1.6-fold higher.

Ac-[Sar][Sar]H[dD]VPCP[1Nal]G[Aib]FWCPVNR[Aib]GC (linker 7-14-21 via TBMB) [Bicycle Compound 266]: affinity was put at a Ki of 1.6 nM. The Ki values of the last two molecules are within 1.5-fold of each other.

Molecule Ac-[Sar][Sar]A[dD]VTCPWG[Aib]F[1Nal]CPVNR[Aib]GC (linker 7-14-21 via TBMB′) [Bicycle Compound 179] came in with a Ki of 2.94 nM.

Molecule Ac-[Sar][Sar]H[dD]VPCPWG[Aib]F[1Nal]CPVNR[Aib]GC (linker 7-14-21 via TBMB) [Bicycle Compound 268] returned an inhibition constant Ki of 1.24 nM. Against the preceding molecule, the Ki is about 2.4-fold lower.

In turn, Ac-[Sar][Sar]A[dD]VTC[Ac3c]WGPFWCPVNRPGC (linker 7-14-21 via TBMB′) [Bicycle Compound 165] yielded a Ki of 185 nM.

The molecule AHDVPCPWGPF[1Nal]CPVNRPGC (linker 6-13-20 via TBMB) [Bicycle Compound 189] returned an inhibitory constant (Ki) of 1.3 nM.

The molecule AHDVPCP[1Nal]GPFWCPVNRPGC (linker 6-13-20 via TBMB) [Bicycle Compound 188] came in with a Ki of 1.45 nM.

In turn, Ac-[Sar][Sar]A[dD]VTC[4BenzylPro]WGPFWCPVNRPGC (linker 7-14-21 via TBMB′) [Bicycle Compound 168] had a Ki of 5.03 nM.

The molecule Ac-[Sar][Sar]A[dD]VTCP[1Nal]G[Aib]F[1Nal]CPVNR[Aib]GC (linker 7-14-21 via TBMB′) [Bicycle Compound 181] registered a Ki of 1.37 nM. Against the preceding molecule, the Ki is about 3.7-fold lower.

For Ac-[Sar][Sar]H[dD]VPCP[1Nal]G[Aib]F[1Nal]CPVNR[Aib]GC (linker 7-14-21 via TBMB) [Bicycle Compound 261], the Ki was found to be 0.63 nM.

Ac-[Sar][Sar]AD[Tle]TCPWGPFWCPVNRPGC (linker 7-14-21 via TBMB′) [Bicycle Compound 164] returned an inhibition constant Ki of 2.25 nM.

In turn, Ac-[Sar][Sar]A[dD]VTCP[1Nal]GPFWCPVNRPGC (linker 7-14-21 via TBMB′) [Bicycle Compound 170] yielded a Ki of 0.6 nM. Compared with the last molecule, the Ki is about 3.8-fold lower.

ADVHCPWG[Aib]FWCPVNRPGCA (linker 5-12-19 via TBMB′) [Bicycle Compound 153] registered an inhibitory constant (Ki) of 0.51 nM.

On to ADVHCP[Dip]GPFWCPVNRPGCA (linker 5-12-19 via TBMB) [Bicycle Compound 149], for which the Ki is 52.8 nM.

Ac-[Sar][Sar]A[dD][Cba]TCPWGPFWCPVNRPGC (linker 7-14-21 via TBMB′) [Bicycle Compound 160] returned a Ki of 2.6 nM.

Molecule Ac-[Sar][Sar]A[dD]VTC[Ac5c]WGPFWCPVNRPGC (linker 7-14-21 via TBMB′) [Bicycle Compound 167] gave an inhibitory constant (Ki) of 138 nM.

In turn, AHDVPCP[1Nal]GPFWCPVNRPGCA (linker 6-13-20 via TBMB′) [Bicycle Compound 187] returned a Ki of 0.32 nM.

In turn, [dD]VTCPWGPFWCPVNRPGC (linker 4-11-18 via TBMB) [Bicycle Compound 185] showed a Ki of 2.17 nM.

With ADVHCP[1Nal]GPFWCPVNRPGCA (linker 5-12-19 via TBMB) [Bicycle Compound 150], the affinity corresponds to a Ki of 0.12 nM.

Ac-[Sar][Sar]A[dD]VTCPWGP[hArg]WCPVNRPGC (linker 7-14-21 via TBMB′) [Bicycle Compound 171] had a Ki of 4.88 nM.

In the case of Ac-[Sar][Sar]A[dD]VTC[Ac4c]WGPFWCPVNRPGC (linker 7-14-21 via TBMB′) [Bicycle Compound 166], the inhibitory constant (Ki) is 76.7 nM.

As a reminder, the Ki is the equilibrium dissociation constant of an inhibitor or competing ligand from its target.
